Where a chain is given by its changes, count along the chain named. Names and notes keep the numbering of the source. No end group written: not given here. *: point of attachment. BODIPYFLEthylmaleimide = Cc1cc(C)n2c1C=C1C=CC(CCC(=O)NCCN3C(=O)CC(*)C3=O)=[N+]1[B-]2(F)F
What was measured:
[1] = target: Bodipy-FL Mps1(137–171) (S. cerevisiae); assay: fluorescence polarisation; direct titration: 2-fold serial dilutions of Ndc80c^dwarf (from 860 uM stock) added to 20 nM (final) Bodipy-FL peptide; 20 mM Hepes pH 7.2, 150 mM NaCl, 2 mM TCEP; 25 °C; triplicate
Ndc80c^dwarf [2] = assay: Fluorescence polarization competition, reporter Bodipy-FL Mps1(137–171); assay type: binding, S. cerevisiae; conditions: direct titration (Figure 3A) and competition with Bodipy-FL Mps1(137–171) (Figure 3B)
Excerpt: We measured by fluorescence polarization the affinity of Ndc80^dwarf, a shortened version of Ndc80c[51], for a peptide comprising Mps1 residues 137–171, plus a C-terminal cysteine for labeling. We labeled the peptide with the Bodipy fluorophore and determined fluorescence anisotropy as a function of Ndc80c^dwarf concentration (Figure 3A). We then used unlabeled wild-type and mutant peptides in a competition format, at a fixed Ndc80c^dwarf concentration (Figures 3B,C). The mutant peptides corresponded to mutations characterized in one of the accompanying papers. […] Mutating either the basic residues or the hydrophobic residues in the first part of the consensus motif or the conserved arginine at the end of the second part lowered affinity (raised the Ki) by roughly two logs; mutating both the final arginine and the hydrophobic residues eliminated any detectable competition.
Figure 3. Fluorescence polarization measurements of Ndc80c^dwarf binding peptides from the N-terminal extensions of Mps1 and Ipl1. (A) Polarization of fluorescence from 20 nM Bodipy-FL Mps1(137–171) (Mps1 residues 137–171 plus a C-terminal cysteine modified with Bodipy-FL -- see Methods) and Bodipy-FL Ipl1 (26–39;45–59) as a function of Ndc80c^dwarf concentration. (B) Competition binding experiment: unlabeled competitor peptides (see figure annotation) were added in twofold serial dilutions to Bodipy-FL Mps1(137–171) and Ndc80c^dwarf at final concentrations of 20 nM and 500 nM respectively. Loss of polarization indicates displacement of bound Bodipy-FL Mps1(137–171) by the competitor. (C) As in (B), with competitor Mps1(137–171) peptides containing mutations that reduce affinity for Ndc80c[40]. (D) Polarization of fluorescence from 20 nM Bodipy-FL Mps1(137–171) as a function of the concentration of Ndc80c^dwarf bearing mutations in Nuf2 that interfere with its Mps1 interaction in cells. (E) As in (B), but with 20 nM Bodipy-FL Ipl1 (26–39;45–59) as the fluorescent reporter and 27μM Ndc80c^dwarf. […] For the Ipl1 peptide, the second copy of the motif, not used for the fluorescence polarization experiments, is shown in the bottom line.
Mps1 (137–171), Ipl1 (26–39;45–59), and Dam1 (254–270;290–305) peptides with added C-terminal cysteines, were synthesized by the Tufts University Core Facility. […] Fluorescence polarization was measured at 25°C with an Envision plate reader (Perkin Elmer) equipped with a filter set optimized for fluorescence polarization of FITC, which has the same absorption and emission spectra as those of Bodipy FL. […] Fluorescence polarization was measured in triplicate. […] An equal volume of a buffer-matched solution containing 40 nM Bodipy-FL labelled peptide and 1 μM Ndc80c^dwarf was added to each of the dilutions, and fluorescence polarization was measured in triplicate. […]

Ndc80c^dwarf [3] = target: T1, Ndc80c^dwarf (S. cerevisiae, UniProt P40460 1-691; Q04477 1-213; P40014 1-221); assay: fluorescence polarisation; competition: 2-fold serial dilutions of unlabeled peptide (2 mM stock) mixed with an equal volume giving 20 nM Bodipy-FL Mps1(137–171) and 500 nM Ndc80c^dwarf; 20 mM Tris pH 7.2, 100 mM NaCl, 2 mM TCEP; 25 °C; triplicate
T1 chain 1: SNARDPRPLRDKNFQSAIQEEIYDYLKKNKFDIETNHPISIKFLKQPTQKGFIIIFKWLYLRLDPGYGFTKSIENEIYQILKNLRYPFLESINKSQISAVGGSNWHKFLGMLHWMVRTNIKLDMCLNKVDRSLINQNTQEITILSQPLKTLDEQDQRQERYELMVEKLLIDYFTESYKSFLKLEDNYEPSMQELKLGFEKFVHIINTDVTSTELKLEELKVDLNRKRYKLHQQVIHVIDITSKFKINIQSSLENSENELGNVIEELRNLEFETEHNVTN
T1 chain 2: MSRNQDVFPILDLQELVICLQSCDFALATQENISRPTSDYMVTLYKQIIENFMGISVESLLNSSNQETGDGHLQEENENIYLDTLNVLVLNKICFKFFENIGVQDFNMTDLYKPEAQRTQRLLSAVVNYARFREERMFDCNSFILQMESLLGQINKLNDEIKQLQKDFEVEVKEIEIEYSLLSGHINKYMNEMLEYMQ
T1 chain 3: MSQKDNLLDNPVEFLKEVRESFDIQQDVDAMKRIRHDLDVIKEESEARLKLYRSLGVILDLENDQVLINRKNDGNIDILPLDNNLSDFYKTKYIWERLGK
T1 chain 4: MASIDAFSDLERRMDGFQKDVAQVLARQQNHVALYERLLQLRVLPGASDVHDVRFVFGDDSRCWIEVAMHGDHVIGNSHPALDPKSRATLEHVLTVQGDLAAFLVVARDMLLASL

Ndc80c^dwarf [4] = target: T1, Ndc80c^dwarf; assay: FP
[5] = target: T2, Ndc80c^dwarf, P40460;Q04477;P40014; assay: fluorescence polarization competition; conditions: chain shown with the change; point at the highest competitor concentration (about 1e3 µM); 20 nM Bodipy-FL Mps1(137–171), 500 nM Ndc80c^dwarf; lower polarization = more displacement of the …; parent: est. 41; read off a plot
T2 chain 1: T1 chain 1
T2 chain 2: T1 chain 2
T2 chain 3: T1 chain 3
T2 chain 4: T1 chain 4

Bodipy-FL Mps1(137–171) = target: T3, Bodipy-FL Mps1(137–171); assay: fluorescence polarization; conditions: chain shown with the change; 20 nM Bodipy-FL Mps1(137–171); Ndc80c^dwarf mutant titrated
T3 chain: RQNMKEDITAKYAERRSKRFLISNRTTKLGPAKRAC

Ipl1 = target: T4, Ipl1 (Saccharomyces cerevisiae (strain ATCC …, UniProt P38991)); assay: FP direct, Bodipy peptide, Ndc80c dwarf
T4 chain: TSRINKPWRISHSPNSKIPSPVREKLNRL

Mps1 = target: T5, Mps1 (Saccharomyces cerevisiae (strain ATCC …, UniProt P54199)); assay: FP direct, Bodipy peptide, Ndc80c dwarf
T5 chain: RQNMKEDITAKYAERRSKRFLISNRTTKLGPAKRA

Q: “Ndc80c^dwarf bearing the Nuf2 F8A P9A mutations (from UniProt P40460 1-691; Q04477 1-213; P40014 1-221) (complex)” was tested. Which loss of affinity against wild-type Ndc80c^dwarf (logs) [1] did it give?
A: 2 logs

Q: With “Ndc80c^dwarf bearing the Nuf2 N128A mutation (from UniProt P40460 1-691; Q04477 1-213; P40014 1-221) (complex)” as the molecule, how does the loss of affinity against wild-type Ndc80c^dwarf (logs) [1] read?
A: 2 logs

Q: With “RRKSILHTIRNSIASGARISLGSGAARVVNGPVTC [Dam1 (254–270;290–305)]” as the molecule, how does the “relative affinity of peptides for Ndc80c^dwarf (comparison in words)” value (Ndc80c^dwarf [2]) read?
A: nearly the same

Q: Which “relative affinity of peptides for Ndc80c^dwarf (comparison in words)” value (Ndc80c^dwarf [2]) does the source give for “TSRINKPWRISHSPNSKIPSPVREKLNRLC [Ipl1 (26–39;45–59)]” here?
A: bound more weakly than those from Dam1 and Mps1

Q: With RQNMKEDITAKYAEDDSKDFLISNRTTKLGPAKRAC [Mps1 R151D R152D R155D peptide (137–171)] as the molecule, how does the rise of Ki against the wild-type Mps1 peptide (logs) (Ndc80c^dwarf [3]) read?
A: 2 logs

Q: For RQNMKEDITAKYAERRSKRFLISNRTTKLGPAKRAC(BODIPYFLEthylmaleimide) [Bodipy-FL Mps1(137–171)], which Kd (Ndc80c^dwarf [4]) is on record?
A: 0.28 µM

Q: How did the response [5] turn out when RQNMKEDITAKYAERRSKRDAISNRTTKLGPAKSAC [Mps1 (137–171) peptide, unlabeled F156D; L157A; R170S] was run?
A: 76 mP

Q: RQNMKEDITAKYAERRSKRDAISNRTTKLGPAKRAC [Mps1 F156D L157A peptide (137–171)] was tested. Which rise of Ki against the wild-type Mps1 peptide (logs) (Ndc80c^dwarf [3]) did it give?
A: 2 logs

Q: For RQNMKEDITAKYAERRSKRFLISNRTTKLGPAKSAC [Mps1 R170S peptide (137–171)], which rise of Ki against the wild-type Mps1 peptide (logs) (Ndc80c^dwarf [3]) is on record?
A: 2 logs

B1: Ndc80c^dwarf, P40460;Q04477;P40014 Nuf2:N128A (protein)
chain 1: T1 chain 1
chain 2: T1 chain 2 with N128A
chain 3: T1 chain 3
chain 4: T1 chain 4
Q: With B1 as the molecule, how does the Kd (Bodipy-FL Mps1(137–171)) read?
A: 7.4 µM

B2: Ndc80c^dwarf, P40460;Q04477;P40014 Nuf2:F8A; Nuf2:P9A (protein)
chain 1: T1 chain 1
chain 2: T1 chain 2 with F8A, P9A
chain 3: T1 chain 3
chain 4: T1 chain 4
Q: B2 was tested. Which Kd (Bodipy-FL Mps1(137–171)) did it give?
A: 12.5 µM

B3: Ndc80-Nuf2 (protein)
chain 1: MSRNQDVFPILDLQELVICLQSCDFALATQENISRPTSDYMVTLYKQIIENFMGISVESLLNSSNQETGDGHLQEENENIYLDTLNVLVLNKICFKFFENIGVQDFNMTDLYKPEAQRTQRLLSAVVNYARFREERMFDCNSFILQMESLLGQ
chain 2: RDPRPLRDKNFQSAIQEEIYDYLKKNKFDIETNHPISIKFLKQPTQKGFIIIFKWLYLRLDPGYGFTKSIENEIYQILKNLRYPFLESINKSQISAVGGSNWHKFLGMLHWMVRTNIKLDMCLNKVDRSLINQNTQEITILSQPLKTLDEQDQRQERYELMVEKLLIDYFTESYKSFLKLEDNYEPSMQELKLGFEKFVHIINTD
Q: For B3, which Kd (Ipl1) is on record?
A: 18.8 µM

Q: What about the Kd (Mps1) of the same molecule?
A: 0.28 µM
